By Kd is commonly meant the free concentration of one partner at which half of the binding sites on the other are occupied at equilibrium, for simple one-to-one binding. Low readings indicate tighter binding, high ones weaker binding.

The target of assay [1] is T1, HLA-A2 on T2 cells alone (not pulsed with peptide) (human).
T1 construct: TAP-deficient HLA-A2+ T2 cells with no peptide added; Also used as the HLA-A2 that pulsed peptides stabilise; also called T2 alone; T2 cells left unpulsed
Description: flow cytometry, phage clones on T2 cells.

Assay [2] addresses T2, WT1 RMF (…)/HLA-A2 complex on cells (human).
T2 construct: On T2 cells pulsed with the peptide, on cells expressing the RMF minigene, or naturally presented on WT1+/HLA-A2+ tumour cells; also called RMF/HLA-A2; WT1 RMF/A2 complex
Briefly: flow cytometry, phage clones on RMF-pulsed T2 cells. For orientation: Flow cytometry measures light scatter and fluorescence of single cells or particles in a stream.

In assay [3] the target is T3, biotinylated WT1 RMF pMHC complex (human).
T3 construct: Soluble biotinylated complex loaded on the Biacore CAP chip; also called HLA-A2-WT1 RMF complex
Briefly: SPR (Biacore), biotinylated pMHC on CAP chip, BiTE as analyte 150 to 4.6875 nM, 1:1 binding model; clone #18 BiTE. (Surface plasmon resonance follows binding to a sensor surface in real time, without labels.)

In assay [4] the target is T4, TSTP1-10-mer (…)/HLA-A2 complex on T2 cells (human).
T4 construct: Potential off-target peptide pulsed onto T2 cells; also called Tyrosyl protein sulfotransferase 1 peptide
Description: flow cytometry, T2 cells alone or pulsed with peptide, stained with BiTE at 1 µg/ml, MFI.

Assay [5] addresses T3, biotinylated WT1 RMF pMHC complex. Description: SPR (Biacore), biotinylated pMHC on CAP chip, BiTE as analyte 150 to 4.6875 nM, 1:1 binding model; clone #34 BiTE.

B1: ESK2 clone 15 (Clone 15 anti-WTMC antibody moiety), phage clone (scFv, V domains shown)
VH: QVQLVQSGAEVKKPGASVKVSCKASGYTFTDFYIHWVRQAPGQGPEWMGWVNPKSGGTNYAQKFQGRVTMTRDTSISTAYMALSRLRSDDTAVYYCARSWQGMSWESVEDVWGQGTLVTVSS
VL: QSVLTQPPSVSGAPGQRVTISCTGSSSNIGAGYDVHWYQQLPGTAPKLLIYGNSNRPSGVPDRFSGSKSGTSASLAITGLQAEDEADYYCQSYDSSLSGAVFGTGTKVTVLG
notes: Human scFv on phage (E-ALPHA library); also called ESK2-15
Consider B1, for which the binding result is listed as “no binding” in assay [1] and “binds” in assay [2].

B2: ESK2 clone 12 (Clone 12 anti-WTMC antibody moiety), phage clone (scFv, V domains shown)
VH: EVQLVESGGGLVQPGGSLRLSCVVSGITVSNNYMTWVRQAPGKGLEWVSVIYSDGSTYYADSVRGRFTISRDISKNTVFLQMNSLRAEDTAMYYCASDKVAVAWTDGLDSWGQGTMVTVSS
VL: SSELTQDPTVSVALGQTVRITCQGDSLRSYYGGWYQQKPGQAPILVFHGQTNRPSGIPDRFSGSSSGNTVSLTITGAQAEDEADYYCSSRDSSGNHWVFGGGTKLTVLG
notes: Human scFv on phage (E-ALPHA library); also called ESK2-12
Consider B2, for which the binding result in assay [1] is “no binding”; in assay [2], “binds”.

B3: ESK2 clone 26 (Clone 26 anti-WTMC antibody moiety), phage clone (scFv, V domains shown)
VH: QVQLVQSGGGLVQPGRSLRLSCAASGFTFDDYAMHWVRQAPGKGLEWVSGISWNSGSIGYADSVKGRFTISRDNAKNSLYLQMNSLRPEDTAVYYCARGYMGHNWYDWGQGTLVTVSS
VL: LPVLTQPPSVSVAPGKTARITCGGNDIGSKAVHWYQQKPGQAPVLVIYYNRDRPSGIPERFSGSNSGNTATLTISRVEAGDEADYYCQVWDSFSDHYVFGTGTKVTVLG
notes: Human scFv on phage (E-ALPHA library); also called ESK2-26
B3: the binding result in assay [1] is on record as “no binding”; in assay [2], “binds”.

B4: ESK2 clone 32 (Clone 32 anti-WTMC antibody moiety), phage clone (scFv, V domains shown)
VH: QVQLVQSGAEVKKPGSSVKVSCKASGDTFSSYAVSWVRQAPGQGLEWMGAINLIFGTVKYAQKFQGRITITADESTSTAYMELSSLRSEDTAVYYCARGHWSQVWWTSHSYDLWGQGTLVTVSS
VL: QAVLTQPPSVSVAPGKTARITCGGNNIGSKSVHWYQQKPGQAPVLVVYDDSDRPSGIPERFSGSNSGNTATLTISRVEAGDEADYYCQVWDSSSDHYVFGTGTKVTVLG
notes: Human scFv on phage (E-ALPHA library); also called ESK2-32
Turning to B4, the values for the binding result in assay [1] and in assay [2] were “no binding” and “binds”, respectively.

B5: ESK2 clone 17 (Clone 17 anti-WTMC antibody moiety), phage clone (scFv, V domains shown)
VH: EVQLVQSGAEVKKPGESLKISCKGSGYSFTSYWIGWVRQMPGKGLEWMGIIYPGDSDTRYSPSFQGQVTISADKSISTAYLQWSSLKASDTAVYYCARGGYIYYDAWGQGTLVTVSS
VL: SYVLTQPPSVSEAPRQRVTISCSGSRSNVGNNAVSWYQHLPGKAPKLLIYYDDLMPSGVSDRFSGSKSGTSASLAISGLQSEDEADYYCAAWDDSLNGLVFGGGTKLTVLG
notes: Human scFv on phage (E-ALPHA library); also called ESK2-17
Turning to B5, the binding result in assay [1] is listed as “no binding”; in assay [2], “binds”.

B6: ESK2 clone 11 (Clone 11 anti-WTMC antibody moiety), phage clone (scFv, V domains shown)
VH: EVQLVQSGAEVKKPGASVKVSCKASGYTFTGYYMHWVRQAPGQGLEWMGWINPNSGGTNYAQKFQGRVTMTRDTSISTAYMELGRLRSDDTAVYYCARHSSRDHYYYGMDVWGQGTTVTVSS
VL: QSVVTQPPSVSAAPGQRVTISCSGGSSNIGNNYVSWYQHLPGTAPKLLIYENNLKRPSGIPDRFSGSKSGTSATLGITGLQTGDEADYYCGTWDSSLNAGVFGGGTKLTVLG
notes: Human scFv on phage (E-ALPHA library); also called ESK2-11
B6: in assay [1], the binding result is “no binding”.

B7: ESK2 clone #18 BiTE (bispecific antibody, V domains shown)
VH: not shown
VL: QSVLTQPPSVSGAPGQRVSISCTGSSSNIGAGYVVHWYQHLPGTVPKLLIYDNSNRPSGVPDRFSGSNSGSSASLAVTGLQAEDEADYYCQSYDSSLSGWVFGGGTKLTVLG
notes: made in CHO cells; also called ESK2-#18 BiTE; ESK2-BiTE clone #18
B7 registered a Kd in assay [3] of 3 nM.

B8: ESK2 clone #34 BiTE (bispecific antibody, V domains shown)
VH: QVQLVQSGTEVRKPGASLKVSCTTSGYIFTGYYIHWVRQVPGQGLEWMGWINPNSGVTEFAQGFQGRITMTRDTSTSTVYMELSRLTSDDTAVYYCAREGVWGYYDSWGQGTLVTVSS
VL: SSELTQDPAVSVALGQTVRITCQGDSLRSYYASWYQQKPGQAPVLVIYDKNNRPSGIPDRFSGSSSGNTASLTITGAQAEDEADYYCNSRDSSGNHHVVFGGGTKLTVLG
notes: made in CHO cells; also called ESK2-#34 BiTE
For B8, the binding result in assay [4] is reported as “no binding (tested: 1 µg/ml)”. Moreover, in assay [5], the Kd came out at 1.5 nM.

B9: ESK2 clone 14 (Clone 14 anti-WTMC antibody moiety), phage clone (scFv, V domains shown)
VH: EVQLVQSGAEVKKPGASVKISCKTSGYTFTDYYLHWVRQAPVQGLEWMGYVDPYDGYTHYAQNFQGRVTMTTDTSTSTAYMELSSLRSEDTAVYYCARFSGTRQDSHWGQGTLVTVSS
VL: QSALTQPPSASGSPGQSVTISCTGTSSDVGGYNYVSWYQQHPGKAPKLMIYEVSKRPSGVPDRFSGSKSGNTASLTVSGLQAEDEADYYCSSYAGSNNLAVVFGGGTKLTVLG
notes: Human scFv on phage (E-ALPHA library); also called ESK2-14
B9: in assay [1], the binding result is listed as “no binding”.

B10: ESK2 clone 30 (Clone 30 anti-WTMC antibody moiety), phage clone (scFv, V domains shown)
VH: QVQLQESGGGLVQPGGSLRLSCAASGFTFSSYWMHWVRQAPGKGLVWVSRINSDGSSTSYADSVKGRFTISRDNAKNTLYLQMNSLRAEDTAVYYCARSGYYMSDIWGQGTLVTVSS
VL: NFMLTQPPSLSVAPGKTATITCGGNNIGSKSVHWYQQKPGQAPVLVISYDSDRPSGIPERFSGSKSGNTATLTISRVEAGDEADYYCQVWDSSSDQYVFGSGTKVTVLG
notes: Human scFv on phage (E-ALPHA library); also called ESK2-30
With B10, the binding result in assay [1] was “no binding”; in assay [2] it was “binds”.

B11: ESK2 clone 10 (Clone 10 anti-WTMC antibody moiety), phage clone (scFv, V domains shown)
VH: EVQLVESGGGVVQPGGSLRLSCAASGFTFDDYAMHWVRQAPGKGLEWVSLISGDGGSTYYADSVKGRFTISRDNSKNSLYLQMNSLRTEDTALYYCAKDMVAAAGWNPYYYYYGMDVWGQGTTVTVSS
VL: NFMLTQPHSVSESPGKTVTISCTRSSGGIATNYVQWYQQRPGNAPTAVIYVDNERPSGVPERFSGSIDTSSNSASLTISGLETEDEADYYCQSYDSNNHVVFGGGTKVTVLG
notes: Human scFv on phage (E-ALPHA library); also called ESK2-10
Turning to B11, the binding result is given as “no binding” in assay [1] and “binds” in assay [2].

B12: ESK2 clone 36 (Clone 36 anti-WTMC antibody moiety), phage clone (scFv, V domains shown)
VH: EVQLVQSGAEVKKPGESLRISCKDSGYSFTSYWISWVRQMPGKGLEWMGRIDPSDSYTNYSPSFQGHVTISADKSISTAYLQWSSLKASDTAMYYCARMEIYSPDYWGQGTLVTVSS
VL: DIQLTQSPSSLSASVGDRVTISCRASQSINKYLNWYQQKPGEAPKLLIYGALRLQSGVPSRFSGSGSGTDYALTITSLQPEDFATYYCQQSYSTPLTFGGGTKVDIKR
notes: Human scFv on phage (E-ALPHA library); also called ESK2-36
As for B12, the binding result in assay [1] was “no binding”; in assay [2], “binds”.

B13: ESK2 clone 1 (Clone 1 anti-WTMC antibody moiety), phage clone (scFv, V domains shown)
VH: EVQLVQSGAEVKKPGASVKVSCKASGYNFTSYGISWVRQAPGQGLEWMGWISAYNGNTNYAQKLQGRVTMTTDTSTSTAYMELRSLRSDDTAVYYCARDWDYDFLTGWDGMDVWGQGTTVTVSS
VL: QSVVTQPPSVSAAPGQKVTISCSGSSSNIGNNYVSWYQQLPGTAPKLLIYYNNKRPSGIPDRFSGSKSGTSATLGITGLQTGDEADYYCGTWDSSLSAGQVFGGGTKLTVLG
notes: Human scFv on phage (E-ALPHA library); also called ESK2-1
For B13, the binding result is “no binding” in assay [1] and “binds” in assay [2].
